Laboratory results as given in the nanobody polyreactivity screen of Harvey et al. (2022).

Test: yeast display, Sf9 membrane polyspecificity reagent, FACS + sequencing; frameworks hold sequencing errors
Method in brief: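 A nanobody's polyreactivity label depends on the gate it was sorted from. Yeast display cells were stained with 10% biotinylated, detergent-solubilized Sf9 membrane reagent for 1 hour at 4 °C, enriched on streptavidin microbeads and sorted by FACS. The low and high (top ~1%) gates were set on anti-HA fluorescence for expression and streptavidin fluorescence for reagent binding.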

| Sequence | polyreactivity (PSR sort gate) |
| --- | --- |
| QVQLVESGGGLVQAGGSLRLSCAASGSTFYNNAMGWYRQAPGKERELVAAITSSVGSTHYADSVKGRFTISRDNAKNTVYLQMNSLKPEDSAVYYCNARGRLYGHLYDYWGQGTQVTVSS | low polyreactivity |
| QVQLVESGGGLVQAGGSLRLSCAASGSTFYNYVMGWYRQAPGKERELVAAISSSGGNTYYADSVKGRFTISRDNAKNTVYLQMNSLKPEDTAVYYCAARERHPSGGKYDYWGQGTQVTVSS | high polyreactivity |
| QVQLVESGGGLVQAGGSLRLSCAASGSTFYPNAMGWYRQAPGKERELVAAIDRGGSTSYADSVKGRFTISRDNAKNTVYLQMNSLKPEDTAVYYCAVARGGRRKYEYWGQGTQVTVSS | low polyreactivity |
| QVQLVESGGGLVQAGGSLRLSCAASGSTFYPNAMGWYRQAPGKERELVAAIRTRGGSTYYADSVKGRFTISRDNAKNTVYLQMNSLKPEDTAVYYCAAEKRYRKAFDYWGQGTQVTVSS | low polyreactivity |
| QVQLVESGGGLVQAGGSLRLSCAASGSTFYPNAMGWYRQAPGKERELVAAISRSGGSTYYADSVKGRFTISRDNAKNTVYLQMNSLKPEDTAVYYCAADGRSPARYDYWGQGTQVTVSS | low polyreactivity |
| QVQLVESGGGLVQAGGSLRLSCAASGSTFYPNSMGWYRQAPGKERELVDAISWSGGYTYYADSVKGRFTISRDNAKNTVFLQMNSLNPEDTAVYYCAAREFLYSWYTHLKYDYWGQGTQVTVSS | low polyreactivity |
| QVQLVESGGGLVQAGGSLRLSCAASGSTFYPYALGWYRQAHGKVRELVATISFSGGRTYYADSVKGRFTISRDNAKNTVYLQMHSLKPEDTAVYYCAAVSYWHDGHRGNYWGQGTQVTVSS | low polyreactivity |
| QVQLVESGGGLVQAGGSLRLSCAASGSTFYPYAMGWYRPAPGKERELVAGITSSGGSTYYADSVKGRFTISRDNAKNTVYLQMISLKPEDTAVYYCNAYIDALPVSYQYDYWGQGTQVTVSS | low polyreactivity |
| QVQLVESGGGLVQAGGSLRLSCAASGSTFYPYAMGWYRQAPGKERELVAAINWSGGTTYYADSVKGRFTISRDNAKNTVYLQLNSLKPEDTAVYYCAADGYPPGYGYWGQGTQVTVSS | low polyreactivity |
| QVQLVESGGGLVQAGGSLRLSCAASGSTFYPYAMGWYRQAPGKERELVAAISSGGSTYYADSVKGRFTISRDNAKNTVYLQMNSLKPEDTAVYYCAADLYYAYYWGQGTQVTVSS | low polyreactivity |
| QVQLVESGGGLVQAGGSLRLSCAASGSTFYPYAMGWYRQATGKERELVAGISWSGGSTYYADSVKGRFTFSRDNAKNTVYLQMNSLNPEDTAVYYCAVDVYWSVIYDYWGQGTQVTVSS | low polyreactivity |
| QVQLVESGGGLVQAGGSLRLSCAASGSTFYPYFMGWYREAPGKERELVAAITYRGSTYYADSVKGRFTISRDNAKYTVYLQMNSLKPEDTAVYYCAAAVYAIDYTYYYWGQGTQVTVSS | high polyreactivity |
| QVQLVESGGGLVQAGGSLRLSCAASGSTFYPYGMGWYRPAPGKERELVAAITDSGGSTYYADSVKGRFTISRDNAKNTVYLQMNSLKPEDTAVYYCAKTYWYPWRASLWHEYDYWGQGTQVTVSS | low polyreactivity |
| QVQLVESGGGLVQAGGSLRLSCAASGSTFYQYAAMGWYRQAPGKERELVAAISGRGTRTYYADSVKGRFTISRDNAKNTVYLQMNSLKPEDTAVYYCAAEVNIRQYGFDYWGQGTQVTVSS | high polyreactivity |
| QVQLVESGGGLVQAGGSLRLSCAASGSTFYQYAMGWYRQAPGKERELVAAISRISGSTSYADSVKGRFTISRDNAKNTVYLQLYSLKPEDTAVYYCAKGTAPIPYRGRVGTSKSDYWGQGTQVTVSS | low polyreactivity |
| QVQLVESGGGLVQAGGSLRLSCAASGSTFYQYAMGWYRQAPGKERELVAAISWDSGSTYYADSVKGRFTISRDNAKNTVYLQMNSLKPEDTAVYYCAASWYGYYDCYAVEYDYLGQGTQVTVSS | low polyreactivity |

| Sequence | polyreactivity (PSR sort gate) |
| --- | --- |
| QVQLVESGGGLVQAGGSLRLSCAASGSTFYQYAMGWYRQSPGKERELVAAISGISGSTSYADSVKGRFTISRDNAKNTVYLQMNSLKPEDTAVYYCAKGTAPIPYRGRVGTSKSDYWGQGTQVTVSS | low polyreactivity |
| QVQLVESGGGLVQAGGSLRLSCAASGSTFYQYVMGWYRQAPGKERELVAAISGSGGSTYYADSVKGRFTISRDNAKNTVYLQMNSLKPEDTAVYYCAADNYFDWYWLFFEYDYWGQGTQVTVSS | high polyreactivity |
| QVQLVESGGGLVQAGGSLRLSCAASGSTFYRNAMGWYIQAPGKVRELVAAISQSGGRTYYADSVKGRFTISRDNAKNTVYLQMNSLKPEDTAVYYCATAFRKDRGFYPSRDYWGQGTQVTVSS | high polyreactivity |
| QVQLVESGGGLVQAGGSLRLSCAASGSTFYRNVMGWYRQAPGKERELVAAISSGGSTYYADSVIGRFTISRDNAKNTVYLQLNSLKPEDTAVYYCARRLTREYDYWGQGTQVTVSS | low polyreactivity |
| QVQLVESGGGLVQAGGSLRLSCAASGSTFYRYAIRWYRQAPGKERELVAAISKRGGSTYYADSVKGRFTISRDNAKNTVYLQMNSLKPEDTAVYYCAADPFHYGGGDDYWGQGTQVTVSS | high polyreactivity |
| QVQLVESGGGLVQAGGSLRLSCAASGSTFYRYAKVSYRQAPGKARELVAAITRTGGSTYADSVKGRFTISRDNAKYTDYLQMKSLKPEDTAVYYCAVQRYYVSSISPFYYWGQGTQVTVSS | low polyreactivity |
| QVQLVESGGGLVQAGGSLRLSCAASGSTFYRYAMGWYRQAPGKEREFVAAISRSGGSTYYADSVKGRFTISRDNAKNTVYLQMNSLNPEDTAVYYCNALNYRYRKYDYWGQGTQVTVSS | high polyreactivity |
| QVQLVESGGGLVQAGGSLRLSCAASGSTFYRYAMGWYRQAPGKEREFVAAISTRGGSTHYADSVKGRFTISRDTAKNTVYLHMNSLKPEDTAVYYCNARGYYSVPSNTGIRYYRFDYWGQGTQVTVSS | high polyreactivity |
| QVQLVESGGGLVQAGGSLRLSCAASGSTFYRYAMGWYRQAPGKERELVAAIDSSGGSTYYPDSVKGRFTISRDNAKNTVYLQMNSLKPEDTAVYYCATDLPPGGYDSWGQVTQVTVSS | low polyreactivity |
| QVQLVESGGGLVQAGGSLRLSCAASGSTFYRYAMGWYRQAPGKERELVAAISKRGGSTYYADSVKGRFTISRDNAKNTVYLQMNSLKPEDTAVYYCAADPFHYGGGDDYWGQGTQVTVSS | high polyreactivity |
| QVQLVESGGGLVQAGGSLRLSCAASGSTFYRYAMGWYRQAPGKERELVAAISSGGRTYYADSVKGRFTISRDNAKNTVYLQMNSLKPEDTAVYYCAADDSEGFDYWGQGTQVTVSS | high polyreactivity |
| QVQLVESGGGLVQAGGSLRLSCAASGSTFYRYAMGWYRQAPGKERELVAAITRSDGITYYADSVKGRFTISRDNAKNTVYLQMNSLKPEDTAVYYCAKGYVGSFYDDFYYWGQGTQVTVSS | low polyreactivity |
| QVQLVESGGGLVQAGGSLRLSCAASGSTFYRYAMGWYRQAPGKERELVARIRLSGTSTYYADSVKGRFTISRDNAKNTVYLQMNSLKPEDTAVYYCAAELYSRNWRSQYDYWGQGTQVTVSS | high polyreactivity |
| QVQLVESGGGLVQAGGSLRLSCAASGSTFYRYAMGWYRQAPGKERELVATITNSGGSTYYADSVKGRFTISRDNAKNTVYLQMNSLKPEDTAVYYCARVRSRNTGYYYWGQGTQVTVSS | high polyreactivity |
| QVQLVESGGGLVQAGGSLRLSCAASGSTFYRYTMGWYRQAPGKERELVAAISRGGDSTYYADSVKGRFTISRDNAKNTVYLQMNSLKPEDTAVYYCAANVGARKFGYEYNYWGQGTQVTVSS | high polyreactivity |
